Reference: the supplement of paper PMC10065799, “High-throughput profiling of sequence recognition by tyrosine kinases and SH2 domains using bacterial peptide display” (eLife, 2023)

Assays:
[1] = biological target: EPHB1 (UniProt P54762); experiment: phosphorylation enrichment, bacterial display (enrichment ratio); higher = better substrate or ligand; peptides without Tyr show the background
[2] = biological target: Hck (UniProt P08631); experiment: as above
[3] = biological target: Fes (UniProt P07332); experiment: as above
[4] = biological target: Fyn (UniProt P06241); experiment: as above
[5] = biological target: FGFR3 (UniProt P22607); experiment: as above
[6] = biological target: MERTK (UniProt Q12866); experiment: as above
[7] = test system: c-Src; experiment: as above
[8] = biological target: Jak2 (UniProt O60674); experiment: as above
[9] = test system: c-Abl (mouse); experiment: as above
[10] = biological target: FGFR1 (UniProt P11362); experiment: as above
[11] = biological target: EPHB2 (UniProt P29323); experiment: as above
[12] = test system: AncSZ; experiment: as above
[13] = test system: Fer (mouse); experiment: as above
[14] = biological target: SHP2-C SH2; experiment: SH2 binding enrichment of the phosphorylated peptide, bacterial display (enrichment ratio); higher = better substrate or ligand; peptides without Tyr show the background
[15] = biological target: Grb2 SH2 (UniProt P62993); experiment: as above
[16] = biological target: c-Src SH2; experiment: as above
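Wherever SH2 binding enrichment of the phosphorylated peptide, bacterial display is given: peptide library displayed on the E. coli surface as eCPX fusions, selected cells deep-sequenced, score is each peptide's frequency after selection divided by its frequency in the input.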
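Wherever phosphorylation enrichment, bacterial display is given: 11-residue human phosphosite peptides and single-mutation variants displayed on the E. coli surface, counted by deep sequencing, each peptide's frequency after selection divided by its frequency in the unselected input library; frequency after pTyr selection over input frequency; kinase dosed for 20-30% of maximal phosphorylation in three min.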

FGFR3, sequence (P22607 whole entry, looked up): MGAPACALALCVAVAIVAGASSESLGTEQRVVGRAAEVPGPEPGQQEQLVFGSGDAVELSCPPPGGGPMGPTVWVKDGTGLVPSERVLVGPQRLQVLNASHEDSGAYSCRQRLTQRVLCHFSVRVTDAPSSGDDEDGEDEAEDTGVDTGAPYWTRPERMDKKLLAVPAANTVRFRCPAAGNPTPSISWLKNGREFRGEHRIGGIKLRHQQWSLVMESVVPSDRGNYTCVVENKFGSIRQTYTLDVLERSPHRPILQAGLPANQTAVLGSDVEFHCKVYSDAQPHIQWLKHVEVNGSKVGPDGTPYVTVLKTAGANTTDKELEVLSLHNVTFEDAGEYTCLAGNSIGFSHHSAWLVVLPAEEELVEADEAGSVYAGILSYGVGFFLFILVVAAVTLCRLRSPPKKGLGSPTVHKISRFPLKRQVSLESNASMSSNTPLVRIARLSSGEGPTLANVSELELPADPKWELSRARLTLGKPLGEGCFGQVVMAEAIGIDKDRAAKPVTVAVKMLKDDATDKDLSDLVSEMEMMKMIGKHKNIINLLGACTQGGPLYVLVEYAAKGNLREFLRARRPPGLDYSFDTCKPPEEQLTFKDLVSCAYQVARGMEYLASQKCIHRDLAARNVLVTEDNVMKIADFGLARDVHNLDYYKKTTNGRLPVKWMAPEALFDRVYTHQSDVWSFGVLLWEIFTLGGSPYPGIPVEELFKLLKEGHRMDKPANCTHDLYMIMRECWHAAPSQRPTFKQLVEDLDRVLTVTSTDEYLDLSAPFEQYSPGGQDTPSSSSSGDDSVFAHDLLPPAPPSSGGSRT
FGFR1, sequence (P11362 whole entry, looked up): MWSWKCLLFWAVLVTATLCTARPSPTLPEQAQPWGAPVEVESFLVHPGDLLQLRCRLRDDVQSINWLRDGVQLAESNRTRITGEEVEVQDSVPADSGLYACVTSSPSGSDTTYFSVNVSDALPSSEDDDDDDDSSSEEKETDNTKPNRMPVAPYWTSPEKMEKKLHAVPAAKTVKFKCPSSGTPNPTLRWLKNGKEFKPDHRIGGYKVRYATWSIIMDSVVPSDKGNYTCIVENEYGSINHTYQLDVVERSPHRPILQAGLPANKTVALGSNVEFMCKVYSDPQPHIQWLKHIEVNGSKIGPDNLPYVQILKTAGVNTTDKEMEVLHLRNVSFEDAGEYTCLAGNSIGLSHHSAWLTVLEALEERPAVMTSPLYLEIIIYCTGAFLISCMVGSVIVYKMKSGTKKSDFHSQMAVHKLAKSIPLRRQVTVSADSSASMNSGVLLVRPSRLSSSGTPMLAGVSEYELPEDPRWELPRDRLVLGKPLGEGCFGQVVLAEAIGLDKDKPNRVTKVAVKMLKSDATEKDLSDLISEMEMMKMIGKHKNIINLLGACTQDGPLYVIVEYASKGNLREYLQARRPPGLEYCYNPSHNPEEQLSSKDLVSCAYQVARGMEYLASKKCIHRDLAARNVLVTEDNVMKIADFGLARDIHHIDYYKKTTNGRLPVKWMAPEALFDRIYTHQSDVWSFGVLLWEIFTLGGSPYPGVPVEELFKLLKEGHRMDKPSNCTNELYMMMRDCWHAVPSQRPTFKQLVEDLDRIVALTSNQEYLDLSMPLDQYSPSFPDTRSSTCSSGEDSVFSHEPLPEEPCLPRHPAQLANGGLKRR
MERTK, sequence (Q12866 whole entry, looked up): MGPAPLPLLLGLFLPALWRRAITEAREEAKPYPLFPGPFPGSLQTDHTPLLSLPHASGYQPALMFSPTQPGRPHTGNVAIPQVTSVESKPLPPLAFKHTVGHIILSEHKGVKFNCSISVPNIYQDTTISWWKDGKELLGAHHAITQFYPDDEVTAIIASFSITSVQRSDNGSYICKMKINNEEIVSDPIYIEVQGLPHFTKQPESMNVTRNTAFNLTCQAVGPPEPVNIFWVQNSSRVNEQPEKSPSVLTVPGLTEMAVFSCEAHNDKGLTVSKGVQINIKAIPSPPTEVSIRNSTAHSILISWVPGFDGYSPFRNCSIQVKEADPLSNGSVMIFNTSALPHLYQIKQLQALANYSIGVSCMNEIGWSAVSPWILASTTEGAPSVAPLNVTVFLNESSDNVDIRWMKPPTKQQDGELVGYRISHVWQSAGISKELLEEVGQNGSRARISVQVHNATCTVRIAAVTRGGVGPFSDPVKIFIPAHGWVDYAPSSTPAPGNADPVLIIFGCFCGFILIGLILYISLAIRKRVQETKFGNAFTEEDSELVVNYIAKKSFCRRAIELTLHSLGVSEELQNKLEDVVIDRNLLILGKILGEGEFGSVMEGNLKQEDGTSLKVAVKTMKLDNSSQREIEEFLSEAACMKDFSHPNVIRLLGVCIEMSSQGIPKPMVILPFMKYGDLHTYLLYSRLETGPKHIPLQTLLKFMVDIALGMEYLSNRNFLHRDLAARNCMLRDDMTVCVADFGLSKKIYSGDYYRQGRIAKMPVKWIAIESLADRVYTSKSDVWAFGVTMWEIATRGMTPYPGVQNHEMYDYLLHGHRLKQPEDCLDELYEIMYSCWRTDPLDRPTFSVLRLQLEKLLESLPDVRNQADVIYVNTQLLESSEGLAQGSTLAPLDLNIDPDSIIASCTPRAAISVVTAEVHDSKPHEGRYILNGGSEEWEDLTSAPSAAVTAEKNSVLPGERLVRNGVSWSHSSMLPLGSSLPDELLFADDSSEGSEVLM
Grb2 SH2, sequence (P62993 whole entry, looked up): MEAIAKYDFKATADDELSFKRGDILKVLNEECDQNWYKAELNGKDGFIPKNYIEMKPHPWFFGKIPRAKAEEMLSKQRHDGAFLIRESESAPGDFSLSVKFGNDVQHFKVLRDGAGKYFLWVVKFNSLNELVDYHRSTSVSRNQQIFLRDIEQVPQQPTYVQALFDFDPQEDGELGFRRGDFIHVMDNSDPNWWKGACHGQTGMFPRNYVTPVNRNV
Hck, sequence (P08631 whole entry, looked up): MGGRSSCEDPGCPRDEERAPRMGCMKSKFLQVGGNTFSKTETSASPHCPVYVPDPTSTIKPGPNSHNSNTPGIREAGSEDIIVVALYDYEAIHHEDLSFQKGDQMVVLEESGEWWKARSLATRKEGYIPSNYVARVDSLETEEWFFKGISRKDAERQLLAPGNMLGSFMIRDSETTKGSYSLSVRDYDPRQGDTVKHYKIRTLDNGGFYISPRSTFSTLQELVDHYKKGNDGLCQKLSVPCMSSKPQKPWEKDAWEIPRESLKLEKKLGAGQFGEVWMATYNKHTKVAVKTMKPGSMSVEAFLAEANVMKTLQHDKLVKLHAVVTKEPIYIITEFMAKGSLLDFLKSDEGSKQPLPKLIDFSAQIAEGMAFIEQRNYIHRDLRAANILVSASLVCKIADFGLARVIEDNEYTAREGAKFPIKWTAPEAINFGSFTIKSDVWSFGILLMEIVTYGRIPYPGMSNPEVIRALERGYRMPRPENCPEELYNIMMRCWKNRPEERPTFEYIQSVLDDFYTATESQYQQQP
Fyn, sequence (P06241 whole entry, looked up): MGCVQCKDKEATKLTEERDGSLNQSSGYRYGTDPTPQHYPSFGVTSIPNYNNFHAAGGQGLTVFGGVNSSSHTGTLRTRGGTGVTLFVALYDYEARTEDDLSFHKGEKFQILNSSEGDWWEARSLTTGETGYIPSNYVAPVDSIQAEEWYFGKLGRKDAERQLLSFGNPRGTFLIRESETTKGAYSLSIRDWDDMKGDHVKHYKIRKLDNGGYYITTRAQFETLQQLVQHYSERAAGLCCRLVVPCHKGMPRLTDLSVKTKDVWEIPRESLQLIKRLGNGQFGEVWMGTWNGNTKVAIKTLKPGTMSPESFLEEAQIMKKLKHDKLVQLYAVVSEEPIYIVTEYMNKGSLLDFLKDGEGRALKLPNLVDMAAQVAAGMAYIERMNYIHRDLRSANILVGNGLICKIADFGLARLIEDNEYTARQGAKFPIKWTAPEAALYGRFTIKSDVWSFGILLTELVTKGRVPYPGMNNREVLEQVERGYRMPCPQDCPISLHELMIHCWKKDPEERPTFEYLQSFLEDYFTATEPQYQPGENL
EPHB1, sequence (P54762 whole entry, looked up): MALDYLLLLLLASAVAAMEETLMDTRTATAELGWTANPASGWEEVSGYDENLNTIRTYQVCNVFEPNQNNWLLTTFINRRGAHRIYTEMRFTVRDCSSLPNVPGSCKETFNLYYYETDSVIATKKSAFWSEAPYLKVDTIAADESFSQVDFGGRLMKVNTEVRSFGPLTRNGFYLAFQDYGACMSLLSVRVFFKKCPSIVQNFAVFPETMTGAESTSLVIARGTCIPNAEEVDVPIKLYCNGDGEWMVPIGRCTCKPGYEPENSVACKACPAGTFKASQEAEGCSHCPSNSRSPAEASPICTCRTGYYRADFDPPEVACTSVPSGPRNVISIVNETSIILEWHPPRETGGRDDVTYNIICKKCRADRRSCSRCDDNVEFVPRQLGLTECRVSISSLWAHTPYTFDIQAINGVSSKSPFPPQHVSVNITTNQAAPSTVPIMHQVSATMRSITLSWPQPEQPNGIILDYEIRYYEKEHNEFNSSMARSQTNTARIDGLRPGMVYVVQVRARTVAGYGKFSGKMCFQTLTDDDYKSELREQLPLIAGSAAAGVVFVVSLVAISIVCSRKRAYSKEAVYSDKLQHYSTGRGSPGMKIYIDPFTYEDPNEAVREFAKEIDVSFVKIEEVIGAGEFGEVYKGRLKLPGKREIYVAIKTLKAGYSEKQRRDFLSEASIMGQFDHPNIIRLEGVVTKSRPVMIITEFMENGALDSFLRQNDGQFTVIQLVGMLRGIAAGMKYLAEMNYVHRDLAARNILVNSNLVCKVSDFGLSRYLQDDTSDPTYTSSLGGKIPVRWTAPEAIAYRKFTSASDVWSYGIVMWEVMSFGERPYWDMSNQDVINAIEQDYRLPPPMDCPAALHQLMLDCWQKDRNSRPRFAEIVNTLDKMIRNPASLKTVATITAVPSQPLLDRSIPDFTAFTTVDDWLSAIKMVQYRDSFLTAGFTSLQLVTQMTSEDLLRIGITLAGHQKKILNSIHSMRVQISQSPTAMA

Sequence	phosphorylation enrichment [1]	phosphorylation enrichment [2]	phosphorylation enrichment [3]	phosphorylation enrichment [4]	phosphorylation enrichment [5]	phosphorylation enrichment [6]	phosphorylation enrichment [7]	phosphorylation enrichment [8]	phosphorylation enrichment [9]	phosphorylation enrichment [10]	phosphorylation enrichment [11]	phosphorylation enrichment [12]	phosphorylation enrichment [13]	SH2 binding enrichment [14]	SH2 binding enrichment [15]	SH2 binding enrichment [16]
EILLSDLRTGY [TGM1_Y365_Y365D]	0.367	0.553	0.845	0.416	0.616	0.422	0.401	0.744	0.421	0.511	0.455	0.673	0.362	0.629	0.74	0.447
CTTSHYNYMCN [TP53_Y234_I232S]	0.741	0.563	0.755	0.49	0.649	0.549	0.441	0.537	0.515	0.569	0.534	0.896	0.55	2.04	1.01	11
LSDGPYSNSYE [EPOR_Y485_P488S]	0.944	0.664	1.2	0.59	1.02	0.622	0.968	1.38	0.762	0.862	0.67	1.24	0.604	0.523	0.557	1.56
PYRQWYESHYA [RPS8_Y113]	2.82	1.3	1.69	1.09	1.1	1.86	2.35	1.37	1.19	1.36	2.27	1.61	10.9	1.09	1.33	1.59
PATYTYDEYKK [COL8A2_Y648]	0.745	1.55	1.3	1.67	0.728	1.02	3.07	0.868	1.38	0.749	0.883	1.43	0.558	0.799	0.551	1.48
GLAKGYIDPET [CSNK1G2_Y195_E194G]	0.509	0.513	0.795	0.558	0.48	0.472	0.554	0.694	0.454	0.476	0.588	1.04	0.482	0.922	0.823	0.5
NFDRIYIYHLR [MYOF_Y1137_V1136I]	0.701	0.742	1.2	0.732	0.787	0.63	0.923	1.1	0.734	0.548	0.648	1.17	0.611	6.21	1.39	1.03
KVPRHYDDPGK [FOXG1_Y246]	0.414	0.481	1.16	0.443	0.712	0.462	0.505	1.25	1.01	0.428	0.373	0.785	1.11	1.2	1.26	1.56
